According to PMC2883962:

Biological target: prostate apoptosis response protein 4 (Par-4), endogenous in native colon cancer cells (human (endogenous in HT29 and SW480)) (UniProt Q96IZ0)
Test: co-IP; Par-4 immunoprecipitated from lysates of native HT29 cells treated for 24 h with vehicle or 12.5 or 25 μM ISC-4 (AKT inhibitor); immunoprecipitates immunoblotted with PKA, NFκB p50 and 14-3-3 antibodies

UniProt Q96IZ0, sequence (Q96IZ0 whole entry): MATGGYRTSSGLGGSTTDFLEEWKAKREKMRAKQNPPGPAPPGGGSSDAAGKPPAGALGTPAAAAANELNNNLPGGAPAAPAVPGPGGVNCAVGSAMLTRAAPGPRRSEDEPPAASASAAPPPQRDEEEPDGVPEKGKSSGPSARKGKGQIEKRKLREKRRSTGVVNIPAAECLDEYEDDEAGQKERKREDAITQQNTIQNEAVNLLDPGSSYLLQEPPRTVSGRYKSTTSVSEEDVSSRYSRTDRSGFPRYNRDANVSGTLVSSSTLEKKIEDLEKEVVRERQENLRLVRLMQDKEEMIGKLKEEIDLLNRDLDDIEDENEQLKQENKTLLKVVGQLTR
14-3-3, sequence (P63104 whole entry): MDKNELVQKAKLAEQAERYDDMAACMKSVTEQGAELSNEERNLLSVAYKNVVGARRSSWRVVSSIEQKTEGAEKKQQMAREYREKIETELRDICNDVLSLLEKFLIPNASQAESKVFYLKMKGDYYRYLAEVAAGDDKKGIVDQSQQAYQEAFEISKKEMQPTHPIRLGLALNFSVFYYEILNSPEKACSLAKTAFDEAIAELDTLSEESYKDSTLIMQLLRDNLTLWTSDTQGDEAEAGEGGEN

fold decrease of Par-4 binding with ISC-4 against vehicle: 3 fold
Substance: 14-3-3 (from UniProt P63104 1-245) (natural protein)
